Experimental findings from patent US20130309172 are described below.

Series [1] has as its system AuNP-PVGLIGC-PEG (cleavable).
The target of series [2] is AuNP-GIVGPLC-PEG (noncleavable negative control).
For series [3], the target named is AuNP-PVGLIGC-PEG (cleavable). This is another data set of the same source.

trypsin: the “cleavage of the peptide coating of the AuNP conjugate (UV-vis)” value in series [1] is “Cleavable AuNPs treated with trypsin did not exhibit cleavage”.

B1: human matrix metalloproteinase (MMP-2) (protein)
chain: YNFFPRKPKWDKNQITYRIIGYTPDLDPETVDDAFARAFQVWSDVTPLRFSRIHDGEADIMINFGRWEHGDGYPFDGKDGLLAHAFAPGTGVGGDSHFDDDELWTLGEGQVVRVKYGNADGEYCKFPFLFNGKEYNSCTDTGRSDGFLWCSTTYNFEKDGKYGFCPHEALFTMGGNAEGQPCKFPFRFQGTSYDSCTTEGRTDGYRWCGTTEDYDRDKKYGFCPETAMSTVGGNSEGAPCVFPFTFLGNKYESCTSAGRSDGKMWCATTANYDDDRKWGFCPDQGYSLFLVAAHEFGHAMGLEHSQDPGALMAPIYTYTKNFRLSQDDIKGIQELYGASPDIDLGTGPTPTLGPVTPEICKQDIVFDGIAQIRGEIFFFKDRFIWRTVTPRDKPMGPLLVATFWPELPEKIDAVYEAPQEEKAVFFAGNEYWIYSASTLERGYPKPLTSLGLPPDVQRVDAAFNWSKNKKTYIFAGDKFWRYNEVKKKMDPGFPKLIADAWNAIPDNLDAVVDLQGGGHSYFFKGAYYLKLENQSLKSVKFGSIKSDWLGC
On to B1, for which the “cleavage of the peptide coating of the AuNP conjugate (DLS, zeta potential, UV-vis, TEM, FFF)” value in series [2] was “Non-cleavable control and blocker control AuNPs exhibited no cleavage”; in series [3], “cleavable AuNPs were converted to denuded AuNPs following exposure to MMP-2”.
